Patent publication US10801046B2, “Methods and materials for biosynthesizing multifunctional, multivariate molecules via carbon chain modification” (INVISTA NORTH AMERICA S.A.R.L., priority 2016, dated 2020)

B1: SEQ ID NO: 25: Mycobacterium marinum carboxylate reductase (protein)
chain: MSPITREERLERRIQDLYANDPQFAAAKPATAITAAIERPGLPLPQIIETVMTGYADRPALAQRSVEFVTDAGTGHTTLRLLPHFETISYGELWDRISALADVLSTEQTVKPGDRVCLLGFNSVDYATIDMTLARLGAVAVPLQTSAAITQLQPIVAETQPTMIAASVDALADATELALSGQTATRVLVFDHHRQVDAHRAAVESARERLAGSAVVETLAEAIARGDVPRGASAGSAPGTDVSDDSLALLIYTSGSTGAPKGAMYPRRNVATFWRKRTWFEGGYEPSITLNFMPMSHVMGRQILYGTLCNGGTAYFVAKSDLSTLFEDLALVRPTELTFVPRVWDMVFDEFQSEVDRRLVDGADRVALEAQVKAEIRNDVLGGRYTSALTGSAPISDEMKAWVEELLDMHLVEGYGSTEAGMILIDGAIRRPAVLDYKLVDVPDLGYFLTDRPHPRGELLVKTDSLFPGYYQRAEVTADVFDADGFYRTGDIMAEVGPEQFVYLDRRNNVLKLSQGEFVTVSKLEAVFGDSPLVRQIYIYGNSARAYLLAVIVPTQEALDAVPVEELKARLGDSLQEVAKAAGLQSYEIPRDFIIETTPWTLENGLLTGIRKLARPQLKKHYGELLEQIYTDLAHGQADELRSLRQSGADAPVLVTVCRAAAALLGGSASDVQPDAHFTDLGGDSLSALSFTNLLHEIFDIEVPVGVIVSPANDLQALADYVEAARKPGSSRPTFASVHGASNGQVTEVHAGDLSLDKFIDAATLAEAPRLPAANTQVRTVLLTGATGFLGRYLALEWLERMDLVDGKLICLVRAKSDTEARARLDKTFDSGDPELLAHYRALAGDHLEVLAGDKGEADLGLDRQTWQRLADTVDLIVDPAALVNHVLPYSQLFGPNALGTAELLRLALTSKIKPYSYTSTIGVADQIPPSAFTEDADIRVISATRAVDDSYANGYSNSKWAGEVLLREAHDLCGLPVAVFRCDMILADTTWAGQLNVPDMFTRMILSLAATGIAPGSFYELAADGARQRAHYDGLPVEFIAEAISTLGAQSQDGFHTYHVMNPYDDGIGLDEFVDWLNESGCPIQRIADYGDWLQRFETALRALPDRQRHSSLLPLLHNYRQPERPVRGSIAPTDRFRAAVQEAKIGPDKDIPHVGAPIIVKYVSDLRLLGLL
modifications: Mycobacterium marinum (strain ATCC BAA-535 / M)
notes: Mycobacterium marinum carboxylate reductase
B2: SEQ ID NO: 27: Mycobacterium smegmatis fatty-acid-CoA ligase with carboxylate reductase activity (protein)
chain: MTIETREDRFNRRIDHLFETDPQFAAARPDEAISAAAADPELRLPAAVKQILAGYADRPALGKRAVEFVTDEEGRTTAKLLPRFDTITYRQLAGRIQAVTNAWHNHPVNAGDRVAILGFTSVDYTTIDIALLELGAVSVPLQTSAPVAQLQPIVAETEPKVIASSVDFLADAVALVESGPAPSRLVVFDYSHEVDDQREAFEAAKGKLAGTGVVVETITDALDRGRSLADAPLYVPDEADPLTLLIYTSGSTGTPKGAMYPESKTATMWQAGSKARWDETLGVMPSITLNFMPMSHVMGRGILCSTLASGGTAYFAARSDLSTFLEDLALVRPTQLNFVPRIWDMLFQEYQSRLDNRRAEGSEDRAEAAVLEEVRTQLLGGRFVSALTGSAPISAEMKSWVEDLLDMHLLEGYGSTEAGAVFIDGQIQRPPVIDYKLVDVPDLGYFATDRPYPRGELLVKSEQMFPGYYKRPEITAEMFDEDGYYRTGDIVAELGPDHLEYLDRRNNVLKLSQGEFVTVSKLEAVFGDSPLVRQIYVYGNSARSYLLAVVVPTEEALSRWDGDELKSRISDSLQDAARAAGLQSYEIPRDFLVETTPFTLENGLLTGIRKLARPKLKAHYGERLEQLYTDLAEGQANELRELRRNGADRPVVETVSRAAVALLGASVTDLRSDAHFTDLGGDSLSALSFSNLLHEIFDVDVPVGVIVSPATDLAGVAAYIEGELRGSKRPTYASVHGRDATEVRARDLALGKFIDAKTLSAAPGLPRSGTEIRTVLLTGATGFLGRYLALEWLERMDLVDGKVICLVRARSDDEARARLDATFDTGDATLLEHYRALAADHLEVIAGDKGEADLGLDHDTWQRLADTVDLIVDPAALVNHVLPYSQMFGPNALGTAELIRIALTTTIKPYVYVSTIGVGQGISPEAFVEDADIREISATRRVDDSYANGYGNSKWAGEVLLREAHDWCGLPVSVFRCDMILADTTYSGQLNLPDMFTRLMLSLVATGIAPGSFYELDADGNRQRAHYDGLPVEFIAEAISTIGSQVTDGFETFHVMNPYDDGIGLDEYVDWLIEAGYPVHRVDDYATWLSRFETALRALPERQRQASLLPLLHNYQQPSPPVCGAMAPTDRFRAAVQDAKIGPDKDIPHVTADVIVKYISNLQMLGLL
modifications: Mycobacterium smegmatis (strain ATCC 700084 / mc(2)155)

Experiment: Carboxylate reductase activity, 7-hydroxyheptanoate to 7-hydroxyheptanal, NADPH consumption at 340 nm
Format: biochemical
Details: enhanced by gene product of sfp, 20 min, against empty vector control, FIG. 44
Protocol: A sequence encoding a His-tag was added to the genes from Mycobacterium marinum, Mycobacterium smegmatis, Segniliparus rugosus, Mycobacterium smegmatis, Mycobacterium massiliense, and Segniliparus rotundus that encode the carboxylate reductases of SEQ ID NOs: 25 (GenBank Accession No. ACC40567.1), 27 (GenBank Accession No. ABK75684.1), 29 (GenBank Accession No. ABK71854.1), 31 (GenBank Accession No. EFV11917.1), 37 (GenBank Accession No. EIV11143.1), and 38 (GenBank Accession No. ADG98140.1) such that N-terminal HIS tagged carboxylate reductases could be produced. Each of the modified genes was cloned into a pET Duet expression vector alongside a sfp gene encoding a His-tagged phosphopantetheine transferase from Bacillus subtilis, both under control of the T7 promoter.
Each expression vector was transformed into a BL21[DE3] E. coli host and the resulting recombinant E. coli strains were cultivated at 37° C. in a 250 mL shake flask culture containing 50 mL LB media and antibiotic selection pressure, with shaking at 230 rpm. Each culture was induced overnight at 37° C. using an auto-induction media.
The pellet from each induced shake flask culture was harvested via centrifugation. Each pellet was resuspended and lysed via sonication. The cell debris was separated from the supernatant via centrifugation. The carboxylate reductases and phosphopantetheine transferase were purified from the supernatant using Ni-affinity chromatography, diluted 10-fold into 50 mM HEPES buffer (pH=7.5) and concentrated via ultrafiltration.
Enzyme activity (i.e., 7-hydroxyheptanoate to 7-hydroxyheptanal) assays were performed in triplicate in a buffer composed of a final concentration of 50 mM HEPES buffer (pH=7.5), 2 mM […], 10 mM MgCl2, 1 mM ATP, and 1 mM NADPH. Each enzyme activity assay reaction was initiated by adding purified carboxylate reductase and phosphopantetheine transferase or the empty vector control to the assay buffer containing the 7-hydroxyheptanoate and then incubated at room temperature for 20 min. The consumption of NADPH was monitored by absorbance at 340 nm.

| Molecule | acceptance of 7-hydroxyheptanoate as substrate, forming 7-hydroxyheptanal |
| --- | --- |
| B1 | accepted 7-hydroxyheptanoate as substrate |
| B2 | accepted 7-hydroxyheptanoate as substrate |
